According to article PMC10014064:

Columns and labels:
[1] = target: amyloid precursor protein (APP), mouse (mouse (endogenous in C57BL/6 hippocampus))
[2] = target: amyloid precursor protein (APP), mouse (mouse (endogenous in C57BL/6 hippocampus)); remark: listed apart in the source

effect of ifenprodil (5 μM, GluN2B antagonist) on NMDAR EPSCs in infant neurons previously incubated with the Y188 antibody against the APP C-terminal, versus the control condition [1]: 19.8%
reduction in NMDAR EPSCs in CA1 pyramidal neurons of infant mice with the APP C-terminal antibody Y188 (2.5 nM) in the recording pipette, compared with boiled Y188 [2]: 21.1%
Substance: GluN2B subunit of the NMDA receptor, mouse (from UniProt Q01097 27-1482)
